Laboratory results from CN114904015A (JIANGSU MAIWEIKANG NEW DRUG RES AND DEVELOPMENT CO LTD, dated 2022).
Changes are numbered by the printed parent chain.

B1: 8k13-hz35 (antibody, IgG1, V domains shown)
VH: EVQLVQSGAEVKKPGSSVKVSCKASGYAFSNYWMNWVRQAPGQGLEWMGQIYPGSGDTKYSGKFQSRVTITADKSTSTAYMELSSLRSEDTAVYYCARFYYGNVMDYWGQGTLVTVSS
VL: DIVLTQSPDSLAVSLGERATINCKSSQTLLSGGNQKNYLTWYQQKPGQPPKLLIYWASTRESGVPDRFSGSGSGTDFTLTISSLQAEDVAVYYCQQGYSYPLTFGQGTKLEIK
notes: Humanised IgG1 / kappa; also called 本发明的裸抗-2; hz8k13-hz35; not shown: human kappa light chain constant region
B2: 8k13-hz24 (antibody, V domains shown, not shown: large carriers)
VH: B1 VH with E1Q, S77N
VL: B1 VL with V89L
B3: 16k15-hz35 (antibody, IgG1, V domains shown)
VH: EVQLVESGGGLVQPGGSLRLSCAGSGITLSTYAMSWVRQAPGKGLEWVSSIISGGITYYLDSVKGRFTISRDNAKNTLYLQMNSLRAEDTAVYYCARKYHGNALDYWGQGTLVTVSS
VL: B1 VL with L4M, T28S, G32S, K36R, L52K, G97N, S99F
notes: Humanised IgG1 / kappa; also called 本发明的裸抗-1; not shown: human kappa light chain constant region
B4: 16k15-hz22 (antibody, V domains shown, not shown: large carriers)
VH: B3 VH with N83S
VL: B1 VL with L4M, T28S, G32S, K36R, L52K, V89L, Q96N, G97N, S99F
B5: IMAB362 (antibody, human IgG1, kappa, V domains shown)
VH: QVQLQQPGAELVRPGASVKLSCKASGYTFTSYWINWVKQRPGQGLEWIGNIYPSDSYTNYNQKFKDKATLTVDKSSSTAYMQLSSPTSEDSAVYYCTRSWRGNSFDYWGQGTTLTVSS
VL: DIVMTQSPSSLTVTAGEKVTMSCKSSQSLLNSGNQKNYLTWYQQKPGQPPKLLIYWASTRESGVPDRFTGSGSGTDFTLTISSVQAEDLAVYYCQNDYSYPFTFGSGTKLEIKR

Key:
[1] = molecular target: T1, 人CLDN18.2 (human CLDN18.2), expressed on the cell surface (human, UniProt P56856-2 1-261); assay: FACS (MFI) on CHO/CLDN18.2 cells, from 5 μg/mL in 3-fold dilutions
T1 construct: whole, on cells; also called CHOK1细胞表面稳定表达人CLDN18.2; CHO/CLDN18.2

[2] = molecular target: T1, 人CLDN18.2 (human CLDN18.2), expressed …; assay: cell-based or functional assay
[3] = molecular target: T1, 人CLDN18.2 (human CLDN18.2), expressed …; assay: cell-based or functional assay; remark: listed apart in the source

| Binder | binding result [1] | CDC EC50(nM), BxPC3 cells stably expressing human CLDN18.2 [2] [nM] | CDC EC50(nM), CHOK1 cells stably expressing human CLDN18.2 [2] [nM] | CDC EC50(nM), NCI-N87 cells stably expressing human CLDN18.2 [2] [nM] | ADCC reporter (Jurkat FcγRIIIa-FcεRIaγ / NFAT-luciferase) EC50(nM), target-expressing BxPC3 cells [3] [nM] | ADCC reporter (Jurkat FcγRIIIa-FcεRIaγ / NFAT-luciferase) EC50(nM), target-expressing CHOK1 cells [3] [nM] | ADCC reporter (Jurkat FcγRIIIa-FcεRIaγ / NFAT-luciferase) EC50(nM), target-expressing NCI-N87 cells [3] [nM] |
| --- | --- | --- | --- | --- | --- | --- | --- |
| B1 | binds |  |  |  |  |  |  |
| B2 |  | 28.5 | 21.3 | 57.7 | 0.304 | 0.589 | 0.15 |
| B3 | binds |  |  |  |  |  |  |
| B4 |  | 12.2 | 5.2 | 17.4 | 0.176 | 0.712 | 0.0677 |
| B5 |  | 52.2 | 30.4 | 474 | 0.106 | 0.593 | 0.0909 |
